This note sets out measurements from patent publication US20240010750A1 (Bayer, published 2024).

Experiment [1] has as its target T1, human alpha2-Antiplasmin (human, UniProt P08697 40-491).
T1 construct: Bought (antibodies online, ABIN2544306); also called human A2AP; a2AP
T1 sequence: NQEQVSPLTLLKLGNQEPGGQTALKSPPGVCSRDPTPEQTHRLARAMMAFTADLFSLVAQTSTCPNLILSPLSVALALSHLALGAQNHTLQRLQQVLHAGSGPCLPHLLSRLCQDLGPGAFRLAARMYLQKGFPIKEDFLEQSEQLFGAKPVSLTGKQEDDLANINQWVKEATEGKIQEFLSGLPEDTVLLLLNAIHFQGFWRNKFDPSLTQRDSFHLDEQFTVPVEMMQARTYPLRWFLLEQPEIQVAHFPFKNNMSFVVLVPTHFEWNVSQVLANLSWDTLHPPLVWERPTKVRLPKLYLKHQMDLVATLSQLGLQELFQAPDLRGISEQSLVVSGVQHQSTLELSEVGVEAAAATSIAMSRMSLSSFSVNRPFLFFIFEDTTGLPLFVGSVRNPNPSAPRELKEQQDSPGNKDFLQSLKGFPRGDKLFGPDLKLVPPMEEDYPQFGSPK
The experiment is described as follows: ELISA, coated antigen, 3rd exp. As to the method: (§1) A standard ELISA format was used for analyzing the binding affinity of Fabs of this invention to human and rabbit alpha-2-Antiplasmin, respectively. Antigens were coated to black 384 well Maxisorp microtiter plates (Nunc; catalogue number 460518), diluted to a concentration of 1 μg/ml in 1× Coating Buffer (Candor Bioscience; catalogue number 121125). Plates were incubated overnight at 4° C. After overnight incubation, plates were washed 2× with 50 μl/well using PBS+0.05% Tween 20. Following this, 50 μl/well of blocking buffer (Smart Block; Candor Bioscience; catalogue number 113500) was added and the plates were incubated for 1 hour at room temperature. Afterwards, plates were washed for 3× using […] PBS+0.05% Tween 20 buffer. Fabs of this invention were added at different concentrations in a final volume of 30 μl/well. Plates were incubated for 1 hour at room temperature. Following this incubation step, plates were washed for 3× using 50 μl/well of a PBS+0.05% Tween 20 buffer. For the detection of bound Fabs and full-length antibodies, the anti-Human Lambda Light Chains (Bound and Free)—Peroxidase antibody (Sigma; catalogue number A5175) was diluted by the factor of 1:10.000 in 10% Blocking Buffer. […]
(§2) For measurement, the Infinite f500 reader (Tecan) was used. Measurement mode: Fluorescence; Top reading; Ex 535 nm; Em 590 nm.

The target in experiment [2] is T2, rabbit alpha2-Antiplasmin (rabbit (Oryctolagus cuniculus)).
T2 construct: Made in house in HEK293 cells, purified by Ni-IMAC and SEC (a His tag is implied but not described); also called rabbit A2AP; Oryctolagus cuniculus A2AP
T2 chain: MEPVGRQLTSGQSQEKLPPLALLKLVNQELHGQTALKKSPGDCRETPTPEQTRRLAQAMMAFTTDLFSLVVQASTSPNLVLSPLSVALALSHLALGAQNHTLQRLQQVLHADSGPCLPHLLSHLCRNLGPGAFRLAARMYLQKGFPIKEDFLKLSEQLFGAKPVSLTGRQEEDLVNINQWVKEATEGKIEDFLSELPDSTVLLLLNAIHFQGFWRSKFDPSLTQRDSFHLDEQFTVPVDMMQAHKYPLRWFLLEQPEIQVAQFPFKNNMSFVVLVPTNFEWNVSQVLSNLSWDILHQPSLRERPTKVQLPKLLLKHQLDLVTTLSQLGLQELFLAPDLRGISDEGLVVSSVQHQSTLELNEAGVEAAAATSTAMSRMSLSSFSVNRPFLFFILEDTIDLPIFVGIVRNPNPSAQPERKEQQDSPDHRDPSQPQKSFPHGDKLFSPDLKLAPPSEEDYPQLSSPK
The experiment is described as follows: ELISA, coated antigen, 3rd exp. As to the method:
as §1, §2

The target of experiment [3] is T1, human alpha2-Antiplasmin. The experiment is described as follows: ELISA, coated antigen, 1st exp.
In experiment [4] the target is T3, cynomolgus alpha2-Antiplasmin (cynomolgus (Macaca fascicularis), UniProt P08697 28-491 (human entry)).
T3 construct: Made in house in the same way as the rabbit protein; also called cynomolgus A2AP; Macaca fascicularis A2AP
T3 chain: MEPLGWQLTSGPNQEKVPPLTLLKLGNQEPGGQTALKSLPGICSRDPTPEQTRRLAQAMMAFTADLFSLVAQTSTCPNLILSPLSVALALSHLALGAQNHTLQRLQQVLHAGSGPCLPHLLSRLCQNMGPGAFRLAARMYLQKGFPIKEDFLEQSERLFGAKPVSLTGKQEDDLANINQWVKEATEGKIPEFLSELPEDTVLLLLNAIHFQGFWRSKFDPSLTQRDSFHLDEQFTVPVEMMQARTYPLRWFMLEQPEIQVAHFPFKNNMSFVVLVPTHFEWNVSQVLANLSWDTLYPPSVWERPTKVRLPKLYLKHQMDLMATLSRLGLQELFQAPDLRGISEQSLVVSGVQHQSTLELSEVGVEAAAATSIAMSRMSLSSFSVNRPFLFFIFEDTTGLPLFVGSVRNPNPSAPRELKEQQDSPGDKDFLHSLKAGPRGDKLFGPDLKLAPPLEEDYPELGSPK
The experiment is described as follows: ELISA, coated antigen, 1st exp.

For experiment [5], the target named is T2, rabbit alpha2-Antiplasmin. The experiment is described as follows: ELISA, coated antigen, 1st exp.
The target in experiment [6] is T1, human alpha2-Antiplasmin. The experiment is described as follows: SPR Biacore T200, antibody captured on protein G chip, A2AP as analyte, 25 C.
Experiment [7] addresses T3, cynomolgus alpha2-Antiplasmin. The experiment is described as above.
The target of experiment [8] is T2, rabbit alpha2-Antiplasmin. The description is as above.

B1: TPP-12387 hIgG1 (antibody, V domains shown)
VH: EVQLLESGGGLVQPGGSLRLSCAASGFTFDDYAMSWVRQAPGKGLEWVSAIGTGGGTYYADSVKGRFTISRDNSKNTLYLQMNSLRAEDTAVYYCAREYYDSSGYYHLDYWGQGTLVTVSS
VL: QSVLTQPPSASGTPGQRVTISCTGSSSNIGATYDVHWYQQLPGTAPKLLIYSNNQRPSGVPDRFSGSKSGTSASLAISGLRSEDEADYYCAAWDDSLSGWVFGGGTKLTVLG
notes: Fully human IgG1 lambda from the BioInvent n-CoDeR Fab lambda library; parental lead antibody
For B1, the EC50 worked out at 130 nM in the experiment with human alpha2-Antiplasmin [1]; 6.2 nM in experiment [2]; 120 nM in the experiment with human alpha2-Antiplasmin [3]; 90 nM in experiment [4]; 6 nM in experiment [5]. For the same molecule, the dissociation constant Kd with human alpha2-Antiplasmin [6] stood at 180 nM; in experiment [7], 100 nM; in experiment [8] it was 43 nM.
